Source: patent US20220143148A1, “COMPOSITIONS AND METHODS FOR MODULATING CGRP SIGNALING TO REGULATE INTESTINAL INNATE LYMPHOID CELLS” (The Broad Institute, Inc., priority 2019, published 2022)

Test system: small intestinal immune cells
Test: Droplet-based scRNA-seq of small intestinal immune cells (LP and PP), OVA vs PBS, clustering and differential expression
Format: in vivo, mouse
Conditions: cluster ID 6, PP
Text: To comprehensively characterize small intestinal immune cells, Applicants generated scRNA-Seq profiles for 58,067 immune cells collected from lamina propria (LP) and Peyer's patch (PP) regions at steady state and after induction of a type 2 inflammatory reaction to ovalbumin (OVA) (Brandt et al., 2003) (FIGS. 1A and 8A). To ensure sufficient representation of rare cells, Applicants combined a normalization strategy—removing by flow sorting either a portion of IgD+ naïve B cells, which are the most abundant cell type in PPs, or all CD19+ and CD3+ T cells (FIG. 8B, Methods)—with profiling of a sufficiently large number of cells number (P>0.99 to recover at least 15 cells from each cluster, Methods) by massively parallel scRNA-seq (Haber et al., 2017) (Methods). Applicants obtained 36,797 and 21,270 high quality cells passing initial filtering (Methods) from PP and LP regions, respectively.
Overall, Applicants annotated 27 cell subsets across the two compartments, spanning T cells, B cells, ILCs, dendritic cells (DCs), myeloid cells and stromal cells, in frequencies ranging from 0.07% to 14%. Briefly, Applicants first partitioned the cells from the PP regions by unsupervised clustering (Methods) into 46 clusters, retained the 97% of cells that were robustly assigned cell identities in each cluster (Methods), assigned the cells from the LP regions to the 46 clusters using a classifier (Methods), and visualized the data with scvis (Ding et al., 2018), a deep generative model-based method (FIGS. 1B and 8C, Methods). Next, Applicants identified genes that were differentially expressed between the cells in each cluster and the remaining cells (Table 1, Methods), as well as between pairs of clusters (Table 2), to elucidate identities of similar cell types/states. Applicants excluded from downstream analysis clusters mostly consisting of contaminants from epithelium, likely doublets, or cells with a small number of Unique Molecular Identifiers (UMIs) (FIGS. 1C and 8D), or lacking distinct markers (Methods). Altogether, Applicants retained 27 clusters spanning 85% of the cells and each associated with distinct marker genes (FIG. 8E, Methods).
To induce allergic reaction to OVA, 6 to 7 weeks old mice were sensitized twice, two weeks apart, with 50 μg of OVA plus 1 mg of aluminum potassium sulfate adjuvant via intraperitoneal injection. Two weeks later, mice were orally administered with 50 mg of OVA on every other day for a total of five times. 1 μg of α-CGRP peptide was administered simultaneously when indicated. Mice were deprived of food for 3-4 hours in cages with wood chip bedding for limiting antigen degradation in the stomach before each intragastric challenge.
Isolation of cells from Peyer's patches (PPs). Peyer's patches (PPs) were carefully dissected from the small intestine under a stereo microscope using a fine scissor, pierced once with a fine forcep. Tissues were digested in freshly made digestion buffer (RPMI-1640 containing 100 μg/ml Liberase™ and 50 μg/ml DNase I at 37° C. on a roto-mixer. After 15 min, tissues were very gently mixed using a 1 ml pipette. The supernatant was collected and added to ice-cold MACS buffer (pH 7.4; PBS plus 2% FCS and 2 mM EDTA). Pre-warmed (37° C.) fresh digestion buffer was added to the remaining tissues. After rotation at 37° C. for 15 min, the mixture was vigorously mixed using a 1 ml pipette for 1 min. Supernatants from the two steps were combined and passed through 70 μm filters and stained for FACS (below).
Isolation of cells from the lamina propria (LP). The small intestines were opened longitudinally and washed in ice-cold PBS. For scRNA-seq, roughly 0.5 cm of fragments from each of the distal, middle and proximal regions without visible PPs were collected. Epithelial cells were dissociated by tissue rotation in pre-warmed (37° C.) PBS containing 10 mM EDTA at 37° C. for 15 min, followed by additional incubation on ice for 15 min. Tissues were then shaken vigorously. […]

B1: OVA (protein, UniProt P01012 2-386, looked up)
Ovalbumin: GSIGAASMEFCFDVFKELKVHHANENIFYCPIAIMSALAMVYLGAKDSTRTQINKVVRFDKLPGFGDSIEAQCGTSVNVHSSLRDILNQITKPNDVYSFSLASRLYAEERYPILPEYLQCVKELYRGGLEPINFQTAADQARELINSWVESQTNGIIRNVLQPSSVDSQTAMVLVNAIVFKGLWEKAFKDEDTQAMPFRVTEQESKPVQMMYQIGLFRVASMASEKMKILELPFASGTMSMLVLLPDEVSGLEQLESIINFEKLTEWTSSNVMEERKIKVYLPRMKMEEKYNLTSVLMAMGITDVFSSSANLSGISSAESLKISQAVHAAHAEINEAGREVVGSAEAGVDAASVSEEFRADHPFLFCIKHIATNAVLFFGRCVSP
- Mcpt1: percentage of expressing cells in OVA-treated group: 0.35
- Mcpt2: percentage of expressing cells in OVA-treated group: 0.212
- Mir142hg: percentage of expressing cells in OVA-treated group: 0.169
- Mpeg1: percentage of expressing cells in OVA-treated group: 0.992
- Napsa: percentage of expressing cells in OVA-treated group: 0.888
- Neat1: percentage of expressing cells in OVA-treated group: 0.885
- Nfkbia: percentage of expressing cells in OVA-treated group: 0.661
- Nfkbiz: percentage of expressing cells in OVA-treated group: 0.336
- Npc2: percentage of expressing cells in OVA-treated group: 0.985
- Nr4a1: percentage of expressing cells in OVA-treated group: 0.508
- Nr4a3: percentage of expressing cells in OVA-treated group: 0.134
- Odc1: percentage of expressing cells in OVA-treated group: 0.366
- Os9: percentage of expressing cells in OVA-treated group: 0.441
- Pik3ip1: percentage of expressing cells in OVA-treated group: 0.423
- Pim1: percentage of expressing cells in OVA-treated group: 0.509
- Plek: percentage of expressing cells in OVA-treated group: 0.617
- Plekho2: percentage of expressing cells in OVA-treated group: 0.201
- Pltp: percentage of expressing cells in OVA-treated group: 0.878
- Pnrc1: percentage of expressing cells in OVA-treated group: 0.706
- Ppia: percentage of expressing cells in OVA-treated group: 0.998
- Ppp1r16b: percentage of expressing cells in OVA-treated group: 0.237
- Ppp2ca: percentage of expressing cells in OVA-treated group: 0.539
- Psap: percentage of expressing cells in OVA-treated group: 0.997
- Ptp4a1: percentage of expressing cells in OVA-treated group: 0.4
- Ptpre: percentage of expressing cells in OVA-treated group: 0.392
- Rel: percentage of expressing cells in OVA-treated group: 0.381
- Rgs1: percentage of expressing cells in OVA-treated group: 0.466
- Rilpl2: percentage of expressing cells in OVA-treated group: 0.851
- Rnase6: percentage of expressing cells in OVA-treated group: 0.991
- Rnf19b: percentage of expressing cells in OVA-treated group: 0.255
- Rpn2: percentage of expressing cells in OVA-treated group: 0.664
- Runx3: percentage of expressing cells in OVA-treated group: 0.53
- S1pr4: percentage of expressing cells in OVA-treated group: 0.351
- Sell: percentage of expressing cells in OVA-treated group: 0.983
- Selplg: percentage of expressing cells in OVA-treated group: 0.992
- Sf3b1: percentage of expressing cells in OVA-treated group: 0.706
- Siah2: percentage of expressing cells in OVA-treated group: 0.253
- Skil: percentage of expressing cells in OVA-treated group: 0.435
- Sla2: percentage of expressing cells in OVA-treated group: 0.735
- Smc6: percentage of expressing cells in OVA-treated group: 0.849
- Socs3: percentage of expressing cells in OVA-treated group: 0.55
- Spsb2: percentage of expressing cells in OVA-treated group: 0.187
- Tgif1: percentage of expressing cells in OVA-treated group: 0.115
- Tnfaip8l2: percentage of expressing cells in OVA-treated group: 0.512
- Traf4: percentage of expressing cells in OVA-treated group: 0.535
- Trim25: percentage of expressing cells in OVA-treated group: 0.339
- VgIl4: percentage of expressing cells in OVA-treated group: 0.34
- Vps37b: percentage of expressing cells in OVA-treated group: 0.424
- Wnk1: percentage of expressing cells in OVA-treated group: 0.605
- Zc3h12a: percentage of expressing cells in OVA-treated group: 0.135
- Zfand5: percentage of expressing cells in OVA-treated group: 0.423
- Zfp36l2: percentage of expressing cells in OVA-treated group: 0.783
- AY036118: LN (average fold change) (OVA vs PBS): −0.256
- Atf3: LN (average fold change) (OVA vs PBS): −0.693
- Atp5h: LN (average fold change) (OVA vs PBS): 0.168
- B3gnt8: LN (average fold change) (OVA vs PBS): 0.265
- Bcl2l11: LN (average fold change) (OVA vs PBS): −0.499
- Bhlhe40: LN (average fold change) (OVA vs PBS): −0.297
- Bloc1s2: LN (average fold change) (OVA vs PBS): 0.218
- Btg2: LN (average fold change) (OVA vs PBS): −0.156
- Ccl4: LN (average fold change) (OVA vs PBS): 0.241
- Cd68: LN (average fold change) (OVA vs PBS): 0.204
- Cd83: LN (average fold change) (OVA vs PBS): −0.472
- Cdv3: LN (average fold change) (OVA vs PBS): −0.219
- Clcn3: LN (average fold change) (OVA vs PBS): −0.239
- Clec10a: LN (average fold change) (OVA vs PBS): 0.327
- Clec2d: LN (average fold change) (OVA vs PBS): 0.409
- Coq10b: LN (average fold change) (OVA vs PBS): −0.336
- Crem: LN (average fold change) (OVA vs PBS): −0.279
- Cxcr3: LN (average fold change) (OVA vs PBS): 0.302
- Cxcr4: LN (average fold change) (OVA vs PBS): 0.491
- D13Ertd608e: LN (average fold change) (OVA vs PBS): 0.276
- Ddit4: LN (average fold change) (OVA vs PBS): 1.322
- Ddx3x: LN (average fold change) (OVA vs PBS): −0.202
- Defa24: LN (average fold change) (OVA vs PBS): −1.145
